Measured values reported in patent publication US20250361268A1, “NOVEL ANTI-INFLAMMATORY PEPTIDE AND USE THEREOF” (NOVACELL TECHNOLOGY INC., priority 2022, published 2025).
Peptide text beside a SMILES is read from it.

T1: FPR2 (Homo sapiens, UniProt P25090)
T1 construct: expressed in transfected cells; host or cells: RBL cells (RBL-FPR2)
T1 sequence (P25090 1-351): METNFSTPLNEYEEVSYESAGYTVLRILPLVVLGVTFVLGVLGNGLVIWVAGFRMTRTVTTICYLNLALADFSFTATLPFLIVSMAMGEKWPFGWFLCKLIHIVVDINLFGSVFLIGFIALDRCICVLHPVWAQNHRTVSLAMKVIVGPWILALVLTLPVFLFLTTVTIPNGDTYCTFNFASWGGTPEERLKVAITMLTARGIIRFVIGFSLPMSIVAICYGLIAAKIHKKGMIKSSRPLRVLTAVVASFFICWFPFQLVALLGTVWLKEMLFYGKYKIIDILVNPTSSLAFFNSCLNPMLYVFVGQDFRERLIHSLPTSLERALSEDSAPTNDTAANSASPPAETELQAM

T2: FPR1 (Homo sapiens, UniProt P21462)
T2 sequence (P21462 1-350): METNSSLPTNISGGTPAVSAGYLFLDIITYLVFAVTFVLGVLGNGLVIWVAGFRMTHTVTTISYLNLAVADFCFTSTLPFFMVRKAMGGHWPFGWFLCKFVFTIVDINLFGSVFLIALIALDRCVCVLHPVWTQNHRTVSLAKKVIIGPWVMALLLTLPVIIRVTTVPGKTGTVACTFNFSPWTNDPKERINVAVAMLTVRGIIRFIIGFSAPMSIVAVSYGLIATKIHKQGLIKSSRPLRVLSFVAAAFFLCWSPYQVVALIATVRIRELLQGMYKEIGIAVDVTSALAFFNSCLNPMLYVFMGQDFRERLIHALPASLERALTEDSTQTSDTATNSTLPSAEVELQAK

T3: formyl peptide receptor 2 (FPR2) (UniProt P25090 1-351, limits assumed)
T3 sequence (looked up): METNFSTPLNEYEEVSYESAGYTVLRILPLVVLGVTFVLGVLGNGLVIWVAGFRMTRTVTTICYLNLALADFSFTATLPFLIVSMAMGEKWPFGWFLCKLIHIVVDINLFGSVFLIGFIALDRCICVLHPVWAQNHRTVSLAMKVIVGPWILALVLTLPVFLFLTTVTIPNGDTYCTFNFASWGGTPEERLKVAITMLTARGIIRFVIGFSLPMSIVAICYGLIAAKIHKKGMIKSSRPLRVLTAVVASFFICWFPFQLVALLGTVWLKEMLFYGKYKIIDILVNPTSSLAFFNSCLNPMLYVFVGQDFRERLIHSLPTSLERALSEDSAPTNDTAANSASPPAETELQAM

T4: FPR1 (UniProt P21462 1-350, limits assumed)
T4 sequence (looked up): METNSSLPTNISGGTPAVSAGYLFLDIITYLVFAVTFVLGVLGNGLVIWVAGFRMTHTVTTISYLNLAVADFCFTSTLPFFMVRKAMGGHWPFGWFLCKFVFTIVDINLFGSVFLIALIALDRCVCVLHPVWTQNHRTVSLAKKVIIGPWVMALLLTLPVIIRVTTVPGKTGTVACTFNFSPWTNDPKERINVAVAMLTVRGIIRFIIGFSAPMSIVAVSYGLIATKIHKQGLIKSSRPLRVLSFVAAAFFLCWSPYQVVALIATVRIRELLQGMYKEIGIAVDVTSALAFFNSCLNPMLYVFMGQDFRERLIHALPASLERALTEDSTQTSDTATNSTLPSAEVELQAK


Assays:
FPR2 = molecular target: T1, FPR2; experiment: Change in calcium activity by peptide (Fura-2) in RBL cells overexpressing FPR2; assay type: cell-based; conditions: calcium activity (Fura-2), graded per Table 3, read-out: EC50 for [Ca^2+] FPR2
Method in brief: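 Rat basophilic leukemia cells overexpressing FPR2 loaded with Fura-2 (37 °C 1 h, then RT 30 min dark); peptides (0.5 mM stocks in water or 50% DMSO) diluted in HBSS + 20 mM HEPES and added on a plate reader, intracellular Ca2+ change recorded.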

FPR1 [1] = molecular target: T2, FPR1; experiment: Change in calcium activity by peptide, FPR1 activation effect; assay type: cell-based; conditions: calcium activity (Fura-2), graded per Table 3, read-out: EC50 for [Ca^2+] FPR1
Method in brief: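 Cells plated at 3×10^5 per well the day before were loaded with Fura-2 for 1 h at 37 °C, then kept 30 min in the dark at room temperature. Peptide-evoked calcium changes were recorded on a FlexStation 3.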

RAW264.7 cell line = experiment: Cytokine inhibition ability: LPS-induced cytokine gene expression in RAW264.7 macrophages; assay type: cell-based, mouse; conditions: grade of reduction rate of gene expression, peptide 100 nM, LPS 200 ng/mL, 6 hours
Protocol: The present inventors observed the cytokine inhibition ability of the immunomodulatory peptide candidates prepared according to one example of the present invention. Specifically, to confirm whether the peptides reduce inflammatory responses in cells, changes in cytokine gene expression in cells upon inflammation was measured.
The present inventors used a RAW264.7 cell line, that is, mouse macrophages, and used lipopolysaccharide (LPS; Sigma-Aldrich, #L2630), which is the main component of a gram-negative bacterial cell wall, as a material causing an inflammatory response. A peptide that had been dissolved in water at 100 μM was prepared.
In the present experiment, the cells were cultured in a DMEM (Lonza, #BE12-604F) containing 10% FBS and 1% penicillin-streptomycin under conditions of 37° C. and 5% CO2.
The cells were plated in a 24-well plate (Costar, #3603) at a density of 2.5×10^5 cells/well. After 24 hours, the prepared cells were treated with the peptide at 100 nM. After incubation at 37° C. for 30 minutes, to induce inflammation, 200 ng/mL of LPS was treated. After incubation at 37° C. for 6 hours, the cells in a medium-free state were treated with TRIzol™ (Invitrogen, #15596018) to lyse the cells. Through the given experimental method, RNA was obtained, cDNA was produced using a reverse transcriptase (Promega, #M1705). Afterward, a cytokine expression level was measured using SYBR Green (Enzynomics, RT530) and mouse primers of each inflammatory cytokine gene (TNFα, IL-6, and IL-1β).

[2] = molecular target: T3, formyl peptide receptor 2 (FPR2); experiment: cell-based or functional assay
FPR1 [3] = molecular target: T4, FPR1; experiment: cell-based or functional assay

Molecule	EC50 for [Ca2+] [2] [nM]	EC50 for [Ca2+] (FPR1 [3]) [µM]	other results
CSCC[C@H](NC(C)=O)C(=O)N[C@@H](CCCCN)C(=O)N[C@@H](Cc1ccc(O)cc1)C(=O)N[C@@H](Cc1c[nH]c2ccccc12)C(=O)N1CCC[C@H]1C(=O)N[C@H](CCSC)C(N)=O [Peptide 114] (HELM PEPTIDE1{[ac].M.K.Y.W.P.[dM].[am]}$$$$V2.0)	–	–	EC50 (FPR2): < 10 nM; EC50 (FPR1 [1]): 1 to 10 µM; Cytokine inhibition ability IL-1β (RAW264.7 cell line): B (61%-80%); Cytokine inhibition ability IL-6 (RAW264.7 cell line): E (0%-20%); Cytokine inhibition ability TNFα (RAW264.7 cell line): A (81%-100%)
CCCC(=O)N[C@@H](CCSC)C(=O)N[C@@H](CCCCN)C(=O)N[C@@H](Cc1ccc(O)cc1)C(=O)N[C@@H](Cc1c[nH]c2ccccc12)C(=O)N1CCC[C@H]1C(=O)N[C@H](CCSC)C(N)=O [Peptide 115] (HELM PEPTIDE1{[CCCC(=O)[*:2]].M.K.Y.W.P.[dM].[am]}$$$$V2.0)	–	–	EC50 (FPR2): < 10 nM; EC50 (FPR1 [1]): 1 to 10 µM; Cytokine inhibition ability IL-1β (RAW264.7 cell line): B (61%-80%); Cytokine inhibition ability IL-6 (RAW264.7 cell line): B (61%-80%); Cytokine inhibition ability TNFα (RAW264.7 cell line): C (41%-60%)
PMKYKVM (HELM PEPTIDE1{[CCCC(=O)[*:2]].P.M.K.Y.K.V.[dM].[am]}$$$$V2.0; SMILES CCCC(=O)N1CCC[C@H]1C(=O)N[C@@H](CCSC)C(=O)N[C@@H](CCCCN)C(=O)N[C@@H](Cc1ccc(O)cc1)C(=O)N[C@@H](CCCCN)C(=O)N[C@H](C(=O)N[C@H](CCSC)C(N)=O)C(C)C) [peptide of SEQ ID NO 27]	< 10	> 10	–
PMKYKVM (HELM PEPTIDE1{[ac].P.M.K.Y.K.V.[dM].[am]}$$$$V2.0; SMILES CSCC[C@H](NC(=O)[C@@H]1CCCN1C(C)=O)C(=O)N[C@@H](CCCCN)C(=O)N[C@@H](Cc1ccc(O)cc1)C(=O)N[C@@H](CCCCN)C(=O)N[C@H](C(=O)N[C@H](CCSC)C(N)=O)C(C)C) [peptide of SEQ ID NO 26]	< 10	> 10	–
WRYKVM (HELM PEPTIDE1{W.R.Y.K.V.[dM].[am]}$$$$V2.0; N-terminus assumed; SMILES CSCC[C@@H](NC(=O)[C@@H](NC(=O)[C@H](CCCCN)NC(=O)[C@H](Cc1ccc(O)cc1)NC(=O)[C@H](CCCNC(=N)N)NC(=O)[C@@H](N)Cc1c[nH]c2ccccc12)C(C)C)C(N)=O) [peptide of SEQ ID NO 3]	< 10	> 10	–
PMKYKVM (HELM PEPTIDE1{[CCCCCCCC(=O)[*:2]].P.M.K.Y.K.V.[dM].[am]}$$$$V2.0; SMILES CCCCCCCC(=O)N1CCC[C@H]1C(=O)N[C@@H](CCSC)C(=O)N[C@@H](CCCCN)C(=O)N[C@@H](Cc1ccc(O)cc1)C(=O)N[C@@H](CCCCN)C(=O)N[C@H](C(=O)N[C@H](CCSC)C(N)=O)C(C)C) [peptide of SEQ ID NO 28]	< 10	> 10	–
PMKYKVM (HELM PEPTIDE1{P.M.K.Y.K.V.[dM].[am]}$$$$V2.0; N-terminus assumed; SMILES CSCC[C@H](NC(=O)[C@@H]1CCCN1)C(=O)N[C@@H](CCCCN)C(=O)N[C@@H](Cc1ccc(O)cc1)C(=O)N[C@@H](CCCCN)C(=O)N[C@H](C(=O)N[C@H](CCSC)C(N)=O)C(C)C) [peptide of SEQ ID NO 25]	< 10	> 10	–

Continued, in another order:

EC50 for [Ca2+] [2] [nM]	EC50 for [Ca2+] (FPR1 [3]) [µM]	Molecule	other results
< 10	> 10	RMRYRVM (HELM PEPTIDE1{R.M.R.Y.R.V.[dM].[am]}$$$$V2.0; N-terminus assumed; SMILES CSCC[C@H](NC(=O)[C@@H](N)CCCNC(=N)N)C(=O)N[C@@H](CCCNC(=N)N)C(=O)N[C@@H](Cc1ccc(O)cc1)C(=O)N[C@@H](CCCNC(=N)N)C(=O)N[C@H](C(=O)N[C@H](CCSC)C(N)=O)C(C)C) [peptide of SEQ ID NO 30]	–
< 10	> 10	MRYKYM (HELM PEPTIDE1{M.R.Y.K.Y.[dM].[am]}$$$$V2.0; N-terminus assumed; SMILES CSCC[C@H](N)C(=O)N[C@@H](CCCNC(=N)N)C(=O)N[C@@H](Cc1ccc(O)cc1)C(=O)N[C@@H](CCCCN)C(=O)N[C@@H](Cc1ccc(O)cc1)C(=O)N[C@H](CCSC)C(N)=O) [peptide of SEQ ID NO 41]	–
< 10	> 10	RMRYKYM (HELM PEPTIDE1{R.M.R.Y.K.Y.[dM].[am]}$$$$V2.0; N-terminus assumed; SMILES CSCC[C@H](NC(=O)[C@@H](N)CCCNC(=N)N)C(=O)N[C@@H](CCCNC(=N)N)C(=O)N[C@@H](Cc1ccc(O)cc1)C(=O)N[C@@H](CCCCN)C(=O)N[C@@H](Cc1ccc(O)cc1)C(=O)N[C@H](CCSC)C(N)=O) [peptide of SEQ ID NO 38]	–
< 10	> 10	RWRYKYM (HELM PEPTIDE1{[ac].R.W.R.Y.K.Y.[dM].[am]}$$$$V2.0; SMILES CSCC[C@@H](NC(=O)[C@H](Cc1ccc(O)cc1)NC(=O)[C@H](CCCCN)NC(=O)[C@H](Cc1ccc(O)cc1)NC(=O)[C@H](CCCNC(=N)N)NC(=O)[C@H](Cc1c[nH]c2ccccc12)NC(=O)[C@H](CCCNC(=N)N)NC(C)=O)C(N)=O) [peptide of SEQ ID NO 33]	–
< 10	> 10	KWKYKYM (HELM PEPTIDE1{[ac].K.W.K.Y.K.Y.[dM].[am]}$$$$V2.0; SMILES CSCC[C@@H](NC(=O)[C@H](Cc1ccc(O)cc1)NC(=O)[C@H](CCCCN)NC(=O)[C@H](Cc1ccc(O)cc1)NC(=O)[C@H](CCCCN)NC(=O)[C@H](Cc1c[nH]c2ccccc12)NC(=O)[C@H](CCCCN)NC(C)=O)C(N)=O) [peptide of SEQ ID NO 36]	–
< 10	> 10	WRYKYM (HELM PEPTIDE1{W.R.Y.K.Y.[dM].[am]}$$$$V2.0; N-terminus assumed; SMILES CSCC[C@@H](NC(=O)[C@H](Cc1ccc(O)cc1)NC(=O)[C@H](CCCCN)NC(=O)[C@H](Cc1ccc(O)cc1)NC(=O)[C@H](CCCNC(=N)N)NC(=O)[C@@H](N)Cc1c[nH]c2ccccc12)C(N)=O) [peptide of SEQ ID NO 35]	–
< 10	> 10	HWKYKYM (HELM PEPTIDE1{[CCCC(=O)[*:2]].H.W.K.Y.K.Y.[dM].[am]}$$$$V2.0; SMILES CCCC(=O)N[C@@H](Cc1c[nH]cn1)C(=O)N[C@@H](Cc1c[nH]c2ccccc12)C(=O)N[C@@H](CCCCN)C(=O)N[C@@H](Cc1ccc(O)cc1)C(=O)N[C@@H](CCCCN)C(=O)N[C@@H](Cc1ccc(O)cc1)C(=O)N[C@H](CCSC)C(N)=O) [peptide of SEQ ID NO 37]	–
< 10	> 10	RWRYRVM (HELM PEPTIDE1{R.W.R.Y.R.V.[dM].[am]}$$$$V2.0; N-terminus assumed; SMILES CSCC[C@@H](NC(=O)[C@@H](NC(=O)[C@H](CCCNC(=N)N)NC(=O)[C@H](Cc1ccc(O)cc1)NC(=O)[C@H](CCCNC(=N)N)NC(=O)[C@H](Cc1c[nH]c2ccccc12)NC(=O)[C@@H](N)CCCNC(=N)N)C(C)C)C(N)=O) [peptide of SEQ ID NO 29]	–
